We go through 84 variants from the RNAGym collection of RNA variant scans (doi:10.1093/molbev/msab373).

B1: Azoarcus group I ribozyme (parent)
chain: GUGCCUUGCGCCGGGAAACCACGCAAGGGAUGGUGUCAAAUUCGGCGAAACCUAAGCGCCCGCCCGGGCGUAUGGCAACGCCGAGCCAAGCUUCGGCGCCUGCGCCGAUGAAGGUGUAGAGACUAGACGGCACCCACCUAAGGCAAACGCUAUGGUGAAGGCAUAGUCCAGGGAGUGGCGAAAGUCACACAAACCGG

In the data set the parent is B1. Kind of data set: reverse-splicing fitness (ratio to wild type); higher = more active; in vitro selection; Mg2+ level not given. In short, it runs like this: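 An in vitro group I ribozyme library with randomized positions was T7-transcribed and gel-purified. In triplicate, 10 pmol RNA in EPPS pH 7.5 was reacted with 50 pmoles of a 30-nt RNA substrate for 1 h at 37 °C across several added MgCl2 levels (1–48 mM), then stopped with EDTA. Products were reverse transcribed from a substrate-complementary primer, PCR-amplified and sequenced (HiSeq 4000). Fitness is a variant's read proportion after selection over that before, normalised to wild type.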
A111U A120C A145G C150A: the reverse-splicing fitness worked out at 0.0986.

As to C82U A111G A120C A145U C150G C169A U176C, the reverse-splicing fitness was 0.00798.

Turning to A111G A120U A145U C169G U176G, the reverse-splicing fitness turned out to be 0.00196.

For C82G A145C C150G C169U U176A, the reverse-splicing fitness came to 0.0101.

C82G A111U C150U C169A U176A: the reverse-splicing fitness came to 0.0188.

With C82G A111G A120C A145U C150U C169A U176G, the reverse-splicing fitness is 0.00592.

On to A111G A120U A145U C150G, for which the reverse-splicing fitness worked out at 0.105.

In the case of C82G A120G A145G C150A C169G U176G, the reverse-splicing fitness came out at 0.00507.

For C82A A111G A120G A145G C150G C169G U176G, the reverse-splicing fitness is 0.00614.

Consider C82G A111G A120U A145C C150A C169U U176G, for which the reverse-splicing fitness was determined as 0.0019.

C82U A111G A120G A145C C150G: the reverse-splicing fitness was determined as 0.00632.

Regarding A111G A120G A145C C150G C169A U176G, the reverse-splicing fitness is 0.00453.

For C82U A120U A145G C150G C169A, the reverse-splicing fitness amounted to 0.00721.

C82G A111C A145C C150G C169G: the reverse-splicing fitness is 0.00675.

In the case of C82A A111C A120U A145C C150G U176G, the reverse-splicing fitness is 0.00265.

Regarding A111U A120U A145U C150A U176C, the reverse-splicing fitness is 0.0269.

Regarding A111G A120U A145G C169U U176C, the reverse-splicing fitness stood at 0.0414.

As to C82U A145C C150A U176G, the reverse-splicing fitness worked out at 0.0119.

With A145C U176A, the reverse-splicing fitness is 0.767.

As to C82U A111C A120G A145U C150G C169A U176C, the reverse-splicing fitness was 0.00893.

Regarding C82U A111G A120G A145U C150U C169U U176G, the reverse-splicing fitness was found to be 0.00432.

As for C82A A120U A145U C150A C169U U176C, the reverse-splicing fitness stood at 0.0026.

As for C82G A111U A120G A145G C150G C169U U176C, the reverse-splicing fitness was 0.0128.

As for C82G A120U A145U C150G C169U U176A, the reverse-splicing fitness came out at 0.003.

Turning to C82U A111U A120U A145U C169G U176G, the reverse-splicing fitness came to 0.00176.

Turning to C82A A111U A145U C150G C169G, the reverse-splicing fitness came to 0.00819.

As for C82G A111G C150A C169A, the reverse-splicing fitness was 0.0122.

With C82A A120C C150U C169G U176C, the reverse-splicing fitness was 0.0201.

Take C82G A111G A120G A145U: the reverse-splicing fitness came to 0.0198.

Take A111C A120G A145C C150U C169A U176C: the reverse-splicing fitness turned out to be 0.011.

Turning to C82A A111C A120G C150A U176G, the reverse-splicing fitness is 0.00789.

As for A111G A145U C150U C169U, the reverse-splicing fitness worked out at 0.132.

As to A111U A120G A145C C169A U176C, the reverse-splicing fitness came out at 0.0194.

C82G A111C A120C A145G C169U: the reverse-splicing fitness is 0.0139.

With C82U A111C A120G A145G C150A C169A, the reverse-splicing fitness is 0.00989.

With C82G A111G A145U C150G C169A U176C, the reverse-splicing fitness stood at 0.0155.

In the case of C82G A111C A120U C169U U176A, the reverse-splicing fitness was determined as 0.00632.

Consider A120C A145C C150U C169G U176G, for which the reverse-splicing fitness came out at 0.00381.

For the variant C82A A120U C169U U176G, the reverse-splicing fitness turned out to be 0.00156.

Consider C82G A120G A145C C150G C169U, for which the reverse-splicing fitness came out at 0.00976.

For the variant C82A A111U A120C A145G C150U C169U U176A, the reverse-splicing fitness stood at 0.0152.

C82A A120C A145G C150A C169G U176C: the reverse-splicing fitness is 0.0333.

C82G A120U A145C U176C: the reverse-splicing fitness was found to be 0.0798.

C169G U176G: the reverse-splicing fitness was 0.00806.

In the case of C82A A120U A145C C150A C169A, the reverse-splicing fitness was 0.00256.

On to C82A A111U A120C A145C C169A U176A, for which the reverse-splicing fitness came to 0.0167.

For A111G A145G C169G, the reverse-splicing fitness was 0.118.

On to C82U A120U A145U C150A C169G U176A, for which the reverse-splicing fitness is 0.00218.

As to C82A A145C C150A C169G, the reverse-splicing fitness was 0.00755.

For the variant C82A A111U A120C A145U C150A C169G U176C, the reverse-splicing fitness was 0.0263.

As to C82U A111C A145C C150A C169A, the reverse-splicing fitness is 0.00786.

With C82G A111G A120U A145U C150U C169A, the reverse-splicing fitness was 0.00289.

Turning to C82G A120C A145C C150U C169G U176C, the reverse-splicing fitness was 0.013.

Regarding C82G A111C A120C A145U C169U, the reverse-splicing fitness amounted to 0.0143.

Turning to C82U A111C A120U A145C C150A U176A, the reverse-splicing fitness was found to be 0.00307.

Turning to C82A A111G A145G C150G C169G U176G, the reverse-splicing fitness amounted to 0.00597.

C82U A111U A120G C150A C169G U176C: the reverse-splicing fitness is 0.0213.

For C82G A120G A145G C169G U176G, the reverse-splicing fitness came out at 0.00379.

With C82U A111G A120G A145C C150A U176A, the reverse-splicing fitness is 0.00929.

As to C82U A111U A145G C169G U176A, the reverse-splicing fitness came out at 0.0207.

As for C82G A111U A120G A145C C150U C169A, the reverse-splicing fitness was 0.00886.

Consider C82G A111U A145C C150A C169G, for which the reverse-splicing fitness amounted to 0.00822.

Consider A111C A120C A145U C150G C169U U176G, for which the reverse-splicing fitness stood at 0.00656.

Regarding A111C A120G A145G C150U C169U U176C, the reverse-splicing fitness was 0.0446.

As to A111U A120G A145U C150A C169G U176A, the reverse-splicing fitness was 0.0165.

On to C82A A111U A120G A145G C169U U176C, for which the reverse-splicing fitness came to 0.0167.

C82U A111U A120U A145U C150U C169A U176A: the reverse-splicing fitness was 0.00292.

As for A111G A120U A145G C150U U176C, the reverse-splicing fitness was found to be 0.285.

With A111G A120U A145G C150G C169G, the reverse-splicing fitness was found to be 0.0123.

Consider C82G A111G A120U A145C C150A C169G, for which the reverse-splicing fitness is 0.00251.

As to C82U A111G A145G C150U C169A U176G, the reverse-splicing fitness was found to be 0.00534.

With C82A A111U A145G C150U U176G, the reverse-splicing fitness was 0.0191.

A120G A145C C150U C169G U176G: the reverse-splicing fitness stood at 0.00726.

Consider A111G A145C C150A C169A U176A, for which the reverse-splicing fitness came out at 0.0101.

On to C82U A120C C150A U176G, for which the reverse-splicing fitness came to 0.00583.

A111C A120G A145C C150G C169U: the reverse-splicing fitness amounted to 0.0248.

Take A120U A145C C150G C169G: the reverse-splicing fitness was found to be 0.0341.

With C82G A120G A145U C150U C169G U176G, the reverse-splicing fitness came out at 0.00476.

Consider C82A A111G A145G C150U U176A, for which the reverse-splicing fitness amounted to 0.115.

In the case of C82A A120C C150U C169U U176A, the reverse-splicing fitness was found to be 0.0167.

For the variant C82A A111C A120G A145C C169G U176G, the reverse-splicing fitness is 0.00472.

On to A111G A120U C150U C169A U176A, for which the reverse-splicing fitness worked out at 0.00336.

As to C82U A111U A120C A145C U176G, the reverse-splicing fitness was determined as 0.00539.

As for C82G A111G A120C A145U C150U U176C, the reverse-splicing fitness amounted to 0.0348.
